B1: library; numbered along this chain (parent)
chain: MAAAGGARLLRAASAVLGGPAGRWLHHAGSRAGSSGLLRNRGPGGSAEASRSLSVSARARSSSEDKITVHFINRDGETLTTKGKVGDSLLDVVVENNLDIDGFGACEGTLACSTCHLIFEDHIYEKLDAITDEENDMLDLAYGLTDRSRLGCQICLTKSMDNMTVRVPETVADARQSIDVGKTS

Variants of: B1
Assay: scaled log2 fold change in cell abundance, elesclomol vs control (0 = silent mean, 1 = nonsense mean) (scaled log2 ratio); higher = higher viability under elesclomol (loss of FDX1 cuproptosis function)
Details: glucose 10 mM
[1] = with ABC1 FDX1 KO, elesclomol 5 nM, 14 days
[2] = with HEK293T FDX1 KO, elesclomol 40 nM, 11 days
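Also: variant abundance is its share of total variant reads in each endpoint sample, from next-generation sequencing of the integrated ORF PCR-amplified out of genomic DNA.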

Q153E
scaled log2 fold change [1]: 0.283
scaled log2 fold change [2]: 1.2

Q153F
scaled log2 fold change [1]: 0.595
scaled log2 fold change [2]: 0.361

Q153G
scaled log2 fold change [1]: 0.48
scaled log2 fold change [2]: -0.652

Q153H
scaled log2 fold change [1]: 0.41
scaled log2 fold change [2]: -0.0151

Q153I
scaled log2 fold change [1]: 0.0471
scaled log2 fold change [2]: -0.458

Q153K
scaled log2 fold change [1]: 0.016
scaled log2 fold change [2]: 0.139

Q153L
scaled log2 fold change [1]: 0.241
scaled log2 fold change [2]: -0.00657

Q153M
scaled log2 fold change [1]: -0.153
scaled log2 fold change [2]: -0.595

Q153N
scaled log2 fold change [1]: -0.0628
scaled log2 fold change [2]: 0.314

Q153P
scaled log2 fold change [1]: 0.884
scaled log2 fold change [2]: 0.923

Q153R
scaled log2 fold change [1]: -0.0672
scaled log2 fold change [2]: 1.14

Q153S
scaled log2 fold change [1]: 0.243
scaled log2 fold change [2]: 0.372

Q153T
scaled log2 fold change [1]: 0.212
scaled log2 fold change [2]: -0.179

Q153V
scaled log2 fold change [1]: -0.0289
scaled log2 fold change [2]: 0.299

Q153W
scaled log2 fold change [1]: 0.543
scaled log2 fold change [2]: 0.414

Q153Y
scaled log2 fold change [1]: 0.621
scaled log2 fold change [2]: 0.0427

I154A
scaled log2 fold change [1]: 0.161
scaled log2 fold change [2]: 0.851

I154C
scaled log2 fold change [1]: -0.101
scaled log2 fold change [2]: 0.0571

I154D
scaled log2 fold change [1]: 1.18
scaled log2 fold change [2]: 1.22

I154E
scaled log2 fold change [1]: 1.05
scaled log2 fold change [2]: 0.819

I154F
scaled log2 fold change [1]: 0.839
scaled log2 fold change [2]: 0.781

I154G
scaled log2 fold change [1]: 1.1
scaled log2 fold change [2]: 1.27

I154H
scaled log2 fold change [1]: 0.392
scaled log2 fold change [2]: 0.163

I154K
scaled log2 fold change [1]: 0.995
scaled log2 fold change [2]: 0.727

I154L
scaled log2 fold change [1]: 0.117
scaled log2 fold change [2]: 0.0996

I154M
scaled log2 fold change [1]: 0.363
scaled log2 fold change [2]: 0.583

I154N
scaled log2 fold change [1]: 0.748
scaled log2 fold change [2]: 0.148

I154P
scaled log2 fold change [1]: 1.04
scaled log2 fold change [2]: 0.814

I154Q
scaled log2 fold change [1]: 0.399
scaled log2 fold change [2]: 0.268

I154R
scaled log2 fold change [1]: 1.01
scaled log2 fold change [2]: 0.787

I154S
scaled log2 fold change [1]: 0.481
scaled log2 fold change [2]: 0.0924

I154T
scaled log2 fold change [1]: -0.043
scaled log2 fold change [2]: -0.257

I154V
scaled log2 fold change [1]: -0.0239
scaled log2 fold change [2]: -1.6

I154W
scaled log2 fold change [1]: 0.968
scaled log2 fold change [2]: 0.877

I154Y
scaled log2 fold change [1]: 0.82
scaled log2 fold change [2]: 0.121

C155A
scaled log2 fold change [1]: -0.331
scaled log2 fold change [2]: -0.584

C155D
scaled log2 fold change [1]: 0.24
scaled log2 fold change [2]: -1.76

C155E
scaled log2 fold change [1]: -0.828
scaled log2 fold change [2]: -0.236

C155F
scaled log2 fold change [1]: -0.0473
scaled log2 fold change [2]: -0.0932

C155G
scaled log2 fold change [1]: -0.0608
scaled log2 fold change [2]: -0.601

C155H
scaled log2 fold change [1]: -1.03
scaled log2 fold change [2]: -0.48

C155I
scaled log2 fold change [1]: 0.0211
scaled log2 fold change [2]: -0.117

C155K
scaled log2 fold change [1]: -0.165
scaled log2 fold change [2]: 6.73e-05

C155L
scaled log2 fold change [1]: 0.0756
scaled log2 fold change [2]: -0.359

C155M
scaled log2 fold change [1]: 0.338
scaled log2 fold change [2]: 0.969

C155N
scaled log2 fold change [1]: -0.0685

C155P
scaled log2 fold change [1]: 0.0631
scaled log2 fold change [2]: 0.21

C155Q
scaled log2 fold change [1]: 0.507

C155R
scaled log2 fold change [1]: -0.248
scaled log2 fold change [2]: -1.26

C155S
scaled log2 fold change [1]: 0.114
scaled log2 fold change [2]: -0.635

C155T
scaled log2 fold change [1]: -0.251
scaled log2 fold change [2]: -0.435

C155V
scaled log2 fold change [1]: -0.17
scaled log2 fold change [2]: -0.185

C155W
scaled log2 fold change [1]: -0.0475
scaled log2 fold change [2]: 0.246

C155Y
scaled log2 fold change [1]: -0.378
scaled log2 fold change [2]: -0.939

L156A
scaled log2 fold change [1]: 0.194
scaled log2 fold change [2]: -1

L156C
scaled log2 fold change [1]: 0.353
scaled log2 fold change [2]: 0.332

L156D
scaled log2 fold change [1]: 1.12
scaled log2 fold change [2]: 0.926

L156E
scaled log2 fold change [1]: 1.11
scaled log2 fold change [2]: 1.53

L156F
scaled log2 fold change [1]: 0.599
scaled log2 fold change [2]: -0.036

L156G
scaled log2 fold change [1]: 0.709
scaled log2 fold change [2]: 0.904

L156H
scaled log2 fold change [1]: 1.07
scaled log2 fold change [2]: 1.03

L156I
scaled log2 fold change [1]: -0.0958
scaled log2 fold change [2]: -0.948

L156K
scaled log2 fold change [1]: 1.05
scaled log2 fold change [2]: 1.71

L156M
scaled log2 fold change [1]: -0.318
scaled log2 fold change [2]: -0.383

L156N
scaled log2 fold change [1]: 0.8
scaled log2 fold change [2]: 0.347

L156P
scaled log2 fold change [1]: 0.268
scaled log2 fold change [2]: 0.446

L156Q
scaled log2 fold change [1]: 0.697
scaled log2 fold change [2]: 0.562

L156R
scaled log2 fold change [1]: 1.06
scaled log2 fold change [2]: 1.1

L156S
scaled log2 fold change [1]: 0.388
scaled log2 fold change [2]: 0.852

L156T
scaled log2 fold change [1]: 0.139
scaled log2 fold change [2]: 0.0718

L156V
scaled log2 fold change [1]: -0.38
scaled log2 fold change [2]: 0.664

L156W
scaled log2 fold change [1]: 1.06
scaled log2 fold change [2]: 1.36

L156Y
scaled log2 fold change [1]: 1.07
scaled log2 fold change [2]: 0.941

T157A
scaled log2 fold change [1]: 0.304
scaled log2 fold change [2]: 0.871

T157C
scaled log2 fold change [1]: 0.0208
scaled log2 fold change [2]: 0.206

T157D
scaled log2 fold change [1]: 0.102
scaled log2 fold change [2]: -0.275

T157E
scaled log2 fold change [1]: 0.0855
scaled log2 fold change [2]: -0.0584

T157F
scaled log2 fold change [1]: 0.0938
scaled log2 fold change [2]: 0.986

T157G
scaled log2 fold change [1]: -0.366
scaled log2 fold change [2]: 0.895

T157H
scaled log2 fold change [1]: -0.268
scaled log2 fold change [2]: -0.000268

T157I
scaled log2 fold change [1]: -0.909
scaled log2 fold change [2]: -0.784

T157K
scaled log2 fold change [1]: 0.0573
scaled log2 fold change [2]: -0.19

T157L
scaled log2 fold change [1]: -0.0209
scaled log2 fold change [2]: -0.588

T157M
scaled log2 fold change [1]: 0.046
scaled log2 fold change [2]: 0.00875

T157N
scaled log2 fold change [1]: -0.181

T157P
scaled log2 fold change [1]: 0.927
scaled log2 fold change [2]: 0.296

T157Q
scaled log2 fold change [1]: 0.0955
scaled log2 fold change [2]: 1.04

T157R
scaled log2 fold change [1]: 0.294
scaled log2 fold change [2]: 0.0556

T157S
scaled log2 fold change [1]: 0.365
scaled log2 fold change [2]: 0.742

T157V
scaled log2 fold change [1]: -0.108
scaled log2 fold change [2]: -0.969

T157Y
scaled log2 fold change [1]: 0.175
scaled log2 fold change [2]: -0.241

K158A
scaled log2 fold change [1]: -0.146
scaled log2 fold change [2]: 0.138

K158C
scaled log2 fold change [1]: 0.225
scaled log2 fold change [2]: 0.192

K158D
scaled log2 fold change [1]: 0.233
scaled log2 fold change [2]: 0.95

K158E
scaled log2 fold change [1]: -0.265
scaled log2 fold change [2]: 0.159

K158F
scaled log2 fold change [1]: 0.241
scaled log2 fold change [2]: 0.189

K158G
scaled log2 fold change [1]: -0.426
scaled log2 fold change [2]: -0.842

K158H
scaled log2 fold change [1]: 0.174
scaled log2 fold change [2]: -0.704

K158I
scaled log2 fold change [1]: -0.0888
scaled log2 fold change [2]: -0.515

K158L
scaled log2 fold change [1]: 0.172
scaled log2 fold change [2]: -0.122

K158M
scaled log2 fold change [1]: 0.185
scaled log2 fold change [2]: -0.505

K158N
scaled log2 fold change [1]: -0.716
scaled log2 fold change [2]: -0.562

K158P
scaled log2 fold change [1]: 0.0465
scaled log2 fold change [2]: 0.515

K158Q
scaled log2 fold change [1]: -0.363
scaled log2 fold change [2]: -0.446

K158R
scaled log2 fold change [1]: 0.0874
scaled log2 fold change [2]: -0.484

K158S
scaled log2 fold change [1]: 0.23
scaled log2 fold change [2]: -0.645

K158T
scaled log2 fold change [1]: -0.0261
scaled log2 fold change [2]: 0.646

K158V
scaled log2 fold change [1]: 0.0943
scaled log2 fold change [2]: -0.343

K158W
scaled log2 fold change [1]: 0.161
scaled log2 fold change [2]: -0.562

K158Y
scaled log2 fold change [1]: 0.0178
scaled log2 fold change [2]: -1.33

S159A
scaled log2 fold change [1]: 0.168
scaled log2 fold change [2]: -0.0471

S159C
scaled log2 fold change [1]: 0.095
scaled log2 fold change [2]: -0.0429

S159D
scaled log2 fold change [1]: -1.07
scaled log2 fold change [2]: -0.414

S159E
scaled log2 fold change [1]: -0.499
scaled log2 fold change [2]: -0.34

S159F
scaled log2 fold change [1]: -0.798
scaled log2 fold change [2]: 0.523

S159G
scaled log2 fold change [1]: -1.03
scaled log2 fold change [2]: -0.767

S159H
scaled log2 fold change [1]: -0.58
scaled log2 fold change [2]: 0.214

— the supplement of paper PMC12855868
